Experimental data taken from PMC5454378, “Histone deacetylase 10 structure and molecular function as a polyamine deacetylase” (Nature Communications, 2017).

Substrate: CC(=O)NCCCC[C@H](NC(=O)[C@H](C)NC(=O)CNC(C)=O)C(=O)N[C@@H](CC(N)=O)C(=O)N[C@@H](CC(C)C)C(=O)N[C@@H](CCC(N)=O)C(N)=O
Experiment: purified protein, by the assay type
Design: discontinuous LC-MS deacetylation assay, dansylated product quantified, steady-state kinetics
Conditions: 50.0 °C
Description: To study steady-state kinetics with non-fluorogenic peptide substrates and acetylpolyamines, a discontinuous LC–MS was employed based on the protocol of assaying nonfluorogenic acetyllysine peptide substrates for HDAC6 (ref. [17]). Assays were performed in triplicate. Briefly, 5 μl of enzyme (0.050–20 μM) in HEPES buffer (20 mM HEPES (pH 7.5), 100 mM NaCl, 5 mM KCl, 1 mM MgCl2) was added to 35 μl of substrate solution to initiate the reaction. […] The deacetylation products were derivatized with dansyl chloride at 50 °C for 2 hrs. The deacetylation products were detected by LC–MS using a Waters SQD equipped with an Acquity UPLC (Waters, Milford, MA, USA) and quantified by using the standard curves generated from the mass signals of the corresponding deacetylated polyamines and peptides. Inhibition of HDAC10 activity was measured by using 0.49 μM zHDAC10 with 192 μM N^8-acetylspermidine. Data were analysed by logistic regression for IC50 determination and the inhibition constant Ki was calculated based on the Cheng-Prusoff equation, Ki=IC50 / (1+[S]/KM)[45]. Assays were performed in triplicate at room temperature.

B1: zHDAC6 CD2 (Danio rerio) (protein)
chain: MDAVPDTKGSSGPPRGTPETKNNKKNLQEARRKGRMDRSKAEEEMSNELQNLDVQGKSKATGTGLVYVDAFTRFHCLWDASHPECPARVSTVMEMLETEGLLGRCVQVEARAVTEDELLLVHTKEYVELMKSTQNMTEEELKTLAEKYDSVYLHPGFFSSACLSVGSVLQLVDKVMTSQLRNGFSINRPPGHHAQADKMNGFCMFNNLAIAARYAQKRHRVQRVLIVDWDVHHGQGIQYIFEEDPSVLYFSVHRYEDGSFWPHLKESDSSSVGSGAGQGYNINLPWNKVGMESGDYITAFQQLLLPVAYEFQPQLVLVAAGFDAVIGDPKGGMQVSPECFSILTHMLKGVAQGRLVLALEGGYNLQSTAEGVCASMRSLLGDPCPHLPSSGAPCESALKSISKTISDLYPFWKSLQTFEGGPLSEVSPLPAPVCAEVKVSSPITGLVYDQRMMLHHNMWDSHHPELPQRISRIFSRHEELRLLSRCHRIPARLATEEELALCHSSKHISIIKSSEHMKPRDLNRLGDEYNSIFISNESYTCALLAAGSCFNSAQAILTGQVRNAVAIVRPPGHHAEKDTACGFCFFNTAALTARYAQSITRESLRVLIVDWDVHHGNGTQHIFEEDDSVLYISLHRYEDGAFFPNSEDANYDKVGLGKGRGYNVNIPWNGGKMGDPEYMAAFHHLVMPIAREFAPELVLVSAGFDAARGDPLGGFQVTPEGYAHLTHQLMSLAAGRVLIILEGGYNLTSISESMSMCTSMLLGDSPPSLDHLTPLKTSATVSINNVLRAHAPFWSSLRVNIPESLRLSLPSPKPKGKCTPGGKGKKSPRQSTPSQSPGQATHRPDQSGFDELTADLLSLNLNTSTSSNTSPESVAVGGARRKVKPNTHRVSAGLESESPLKLNPEKAGAGDDTDVKAETPNRSISEPVVTCDSSAVKDQESLVLEAAGGNTVQSVLERVFGAQATDVDTMYVVDPLPWCPHLESVRPVPAGGIDVFQPCEECGGEAENWICLFCYKVLCGRYVNQHMVTHGQESGHPVVLSFADLSVWCYACESYVHNKVLHEAKNAAHLVKFGEGIHPFN
notes: catalytic domain 2
- Km: 150 ± 20 µM
- kcat: 1.26 ± 0.07 s⁻¹
- kcat/Km: 8300 M⁻¹ s⁻¹
